From paper PMC4470286 (Genes & Development, 2015) come the findings set out here.

B2: N-Fob1-GST, purified from yeast (domain or fragment, S. cerevisiae, UniProt O13329 1-429, looked up)
chain: MTKPRYNDVLFDDDDSVPSESVTRKSQRRKATSPGESRESSKDRLLILPSMGESYTEYVDSYLNLELLERGERETPIFLESLTRQLTQKIYELIKTKSLTADTLQQISDKYDGVVAENKLLFLQRQYYVDDEGNVRDGRNNDKIYCEPKHVYDMVMATHLMNKHLRGKTLHSFLFSHFANISHAIIDWVQQFCSKCNKKGKIKPLKEYKRPDMYDKLLPMERIHIEVFEPFNGEAIEGKYSYVLLCRDYRSSFMWLLPLKSTKFKHLIPVVSSLFLTFARVPIFVTSSTLDKDDLYDICEEIASKYGLRIGLGLKSSARFHTGGILCIQYALNSYKKECLADWGKCLRYGPYRFNRRRNKRTKRKPVQVLLSEVPGHNAKFETKRERVIENTYSRNMFKMAGGKGLIYLEDVNTFALANEADNSCNNNG

The data set “crystal structure” concerns the molecule itself. Put plainly: crystal structure.
The target of data set [1] is T1, Fob1 (wild type) without GST, purified from yeast (S. cerevisiae, UniProt O13329 1-566).
T1 sequence (looked up): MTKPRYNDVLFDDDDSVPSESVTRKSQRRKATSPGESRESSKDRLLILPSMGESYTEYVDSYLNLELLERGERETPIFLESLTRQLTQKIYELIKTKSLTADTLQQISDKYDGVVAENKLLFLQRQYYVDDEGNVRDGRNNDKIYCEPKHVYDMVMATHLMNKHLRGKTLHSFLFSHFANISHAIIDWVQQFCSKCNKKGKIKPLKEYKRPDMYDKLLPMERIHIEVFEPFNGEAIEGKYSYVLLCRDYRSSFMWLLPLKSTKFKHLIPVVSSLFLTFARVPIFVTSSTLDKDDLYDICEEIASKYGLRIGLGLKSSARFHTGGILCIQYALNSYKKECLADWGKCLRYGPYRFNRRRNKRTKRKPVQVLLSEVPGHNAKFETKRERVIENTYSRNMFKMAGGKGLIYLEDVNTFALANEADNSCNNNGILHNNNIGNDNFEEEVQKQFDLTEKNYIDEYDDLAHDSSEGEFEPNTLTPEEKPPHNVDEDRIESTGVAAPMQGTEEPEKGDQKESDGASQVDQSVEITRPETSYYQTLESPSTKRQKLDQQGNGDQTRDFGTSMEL
Briefly: ELISA.

The target in data set [2] is B2. Put plainly: pull-down.

B1: Reb1 protein of Schizosaccharomyces pombe (natural protein, UniProt Q9P6H9 1-504, looked up)
chain: MDTSVLNPELQIHGFIGVDSLQSSRKRKNDFDDFPLNKGLKTNNNDYSGSIEPKFSPALSIKEDGKNDRNFEALMSLQAQDSNLSEQNTSIHLDALASSSIALGNDNVDSSAFLSKVNKGVNAMRNSTSNQTNDSILISPSEITNMDPFLKGSARWTAEHWDYLERRMQNFCQTYSLDHTQVADSLHEKRLHGPLSSLVKLLVQEMPSFTRRTILRHLRALYNIPGYEKYSRKNSSGRGDFGVQETAIISQEVHNFIMDQGWSEYQFCNQIWAGKCPKTIRMFYSNLYKKLSHRDAKSIYHHVRRAYNPFEDRCVWSKEEDEELRKNVVEHGKCWTKIGRKMARMPNDCRDRWRDVVRFGDKLKRNAWSLEEETQLLQIVAELRNREDLSSDINWTLVAQMLGTRTRLQCRYKFQQLTKAASKFELQENVWLLERIYDSLLNNGGKIHWENIVKEANGRWTRDQMLFQFINLKKMIPSYDNLPLLEATKSAIDDFKVVLSGFSN
The stoichiometry N is the number of molecules, sites or subunits per partner or assembly. Consider B1, for which the “stoichiometry N” value in “crystal structure” was found to be 2.

For the molecule B2, the binding result in data set [1] is “binds”.

B3: C-terminal Fob1 with a kinase tag (from a pMAL fusion) (domain or fragment, S. cerevisiae, UniProt O13329 430-566, looked up)
chain: ILHNNNIGNDNFEEEVQKQFDLTEKNYIDEYDDLAHDSSEGEFEPNTLTPEEKPPHNVDEDRIESTGVAAPMQGTEEPEKGDQKESDGASQVDQSVEITRPETSYYQTLESPSTKRQKLDQQGNGDQTRDFGTSMEL
modifications: 32P-labeled
B3: the binding result in data set [2] is listed as “binds”.
